Assay results as given in patent US20190022245A1.

Biological target: epidermal growth factor receptor (EGFR) on cells (human (on human cell lines)) (UniProt P00533)
Test: cell-based or functional assay

- region of interest (ROI) ratio of SW480 (EGFR+) to SW620 (EGFR-) tumors, 24 h: 2.04
- region of interest (ROI) ratio of SW480 (EGFR+) to SW620 (EGFR-) tumors, 48 h: 2.32
- region of interest (ROI) ratio of SW480 (EGFR+) to SW620 (EGFR-) tumors, 72 h: 2.33
B1: h15-2b Fab × EGFR scFv (monovalent anti-mPEG (h15-2b) anti-EGFR BsAb, example 2.3) (bispecific antibody, part only; not given: nothing essential named, not shown: another chain or arm of the molecule; ; small tags and cut ends)
light: DIQMTQSPSSLSASVGDRVTITCKASQDVNTSVAWYQQKPGKAPKLLIYWASTRHTGVPSRFSGSGSGTDFTFTISSLQPEDIATYYCLQYINYPYTFGQGTKLEIKRTVAAPSVFIFPPSDEQLKSGTASVVCLLNNFYPREAKVQWKVDNALQSGNSQESVTEQDSKDSTYSLSSTLTLSKADYEKHKLYACEVTHQGLSSPVTKSFNRGEC
heavy: EVQLVESGGGLVQPGGSLKLSCAASGFTFSNYWMNWVRQASGKGLEWVGEIRSKSNNYATHYAESVKGRFTISRDDSKNTAYLQMNSLKTEDTAVYYCSNRYYWGQGTLVTVSSASTKGPSVFPLAPCSRSTSESTAALGCLVKDYFPEPVTVSWNSGALTSGVHTFPAVLQSSGLYSLSSVVTVPSSNFGTQTYTCNVDHKPSNTKVDKTVERKGEQKLISEEDLGGGGSGGGGSGGGGSQLDIVMTQSPLSLPVTPGEPASISCRSSQNIVHNNGITYLEWYLQKPGQSPQLLIYKVSDRFSGVPDRFSGSGSGTDFTLKISRVEAEDVGVYYCFQGSHIPPTFGQGTKVEIKRAGGGGSGGGGSGGGGSQVQLVQSGAEVKKPGASVKVSCKASGYTFTSYWMHWVRQAPGQGLEWMGNIYPGSGGTNYAEKFKNRVTMTRDTSISTAYMELSRLRSDDTAVYYCARSGGPYFFDYWGQGTLVTVSS
